The values below come from publication PMC6281700, “Biochemical Characterization of Kluyveromyces lactis Adenine Deaminase and Guanine Deaminase and Their Potential Application in Lowering Purine Content in Beer” (Frontiers in Bioengineering and Biotechnology, 2018).

Substrate in series [1]: Nc1nc2nc[nH]c2c(=O)[nH]1
As to the kind of experiment: purified protein. The series is classed as biochemical, Kluyveromyces lactis. To be noted: 100 mM phosphate, pH 7.0, 25°C.

Substrate in series [2]: Nc1ncnc2nc[nH]c12
In words: purified protein. The note with it: 100 mM potassium phosphate, pH 6.0, 30°C. The series is classed as biochemical, Kluyveromyces lactis.

By Km is commonly meant the concentration of substrate that gives half-maximal velocity. For orientation: kcat means the number of substrate molecules converted per active site and unit of time at saturation. In general, kcat/Km refers to the second-order rate constant that governs catalysis at low substrate concentration.

B1: KlacGDA (Kluyveromyces lactis NRRL Y-1140) (protein)
chain: MAPVTINMVKSEESFIDEPFHPEGVKIIVHYGNLIDTPELGQLRIRLKCAVGICSTSGVILFIEEGCDDPVIAALNYDRYLKDIDIHVIFNSVSDPAGKDSFYFPGFVDTHIHASQYPNCGIFGNSTLLDWLDTYTFPLESSLNDENIAALTYDAVISQTLKHGTTCASYFTTIDSNSSKIMADLCKSKGQRAFIGKVCMNQHSPSYYQETIEECKDASLDLIEYILKDLNSPLIKPIITPRFAITCSSALMDSLSEVAEEFDLPIQTHLNENDSEIAFVKELFKDCHSYTDVYHKHGLLNGKTVLAHCIHLEDSEIELLKKSSAGISHCPISNSSLTSGECRVKELLNYGLKVSLGSDVSGGFTVSILENARQALLVSRHRAMSVEDPERKEECKLSVAEVLYLATMGGAKVLNLSDKIGSFDVGKEFDAQLIDLSTKGSNVSIFPWQKVTNDKIQPNGKDRIKLENIVAKWLFNGDDRNVKSVWVRGKLCHQNL
notes: full length, N-terminal 6xHis (pET28c NdeI/XhoI), E. coli BL21(DE3); 106 kDa dimer; gene at chromosome D 1,643,703-1,645,193 (1491 bp, about 496 residues)
As to B1, in series [1], the Km is 83 ± 2.7 µM, the kcat turned out to be 7.3 ± 1.2 s⁻¹ and the kcat/Km was determined as 87000 M⁻¹ s⁻¹.

B2: KlacADA (Kluyveromyces lactis NRRL Y-1140) (protein)
chain: MAKFECTDEVTNFLTELPKCEHHLHLEGTLEPELLFQLVERNGVQLPGTFPKTVNELHVIYNNFADLQDFLNYYYIGCNVLLSEDDFFELAWSYFKRVSTQGLRHAEVFYDPQSHTSRGISLEVVTKGFERACAKAQEEFNISTKLIMCLLRHCPVEECMDTVKSAKSLIESGVIDGLGLDSSERPFPPELFVECYQLAKSYNKELQLTAHAGEEGDPSFVTNTLDLLETTRIDHGVRSIEDAELIKRLAAQKVMLTLCPLSNVKLQVVKDVSELPLQEFLDNDVPFSINSDDPAYFGGYILQNYLEVYSRFGWSKAVWAKIARQSIEGSWCDPKRKQELLSEVSEVVNKYVNLP
notes: full length, N-terminal 6xHis (pET28c NdeI/XhoI), E. coli BL21(DE3); 46 kDa monomer; gene at chromosome E 2,064,516-2,065,583, no introns (1068 bp, about 355 residues)
Turning to B2, in series [2], the Km was 680 ± 4.6 µM, the kcat worked out at 8.1 ± 1.3 s⁻¹ and the kcat/Km amounted to 11000 M⁻¹ s⁻¹.
